From patent publication US20200024330A1

Key:
Experiment in all cases: cell-based or functional assay
[1] = biological target: HIV-1 Env of isolate 93IN905 (HIV-1)
[2] = biological target: HIV-1 Env of isolate 93MW959 (HIV-1)
[3] = biological target: HIV-1 Env of isolate 97ZA012 (HIV-1)
[4] = biological target: HIV-1 Env of isolate 98IN022 (HIV-1)
[5] = biological target: HIV-1 Env of isolate JRCSF (HIV-1) (UniProt P20871)
[6] = biological target: HIV-1 Env of isolate MGRM-Chronic-B-010 (HIV-1)
[7] = biological target: HIV-1 Env of isolate MGRM-Chronic-B-011 (HIV-1)
[8] = biological target: HIV-1 Env of isolate MGRM-Chronic-B-012 (HIV-1)
[9] = biological target: HIV-1 Env of isolate MGRM-Chronic-B-017 (HIV-1)
[10] = biological target: HIV-1 Env of isolate MGRM-Chronic-B-018 (HIV-1)
[11] = biological target: HIV-1 Env of isolate MGRM-Chronic-B-020 (HIV-1)
[12] = biological target: HIV-1 Env of isolate MGRM-Chronic-B-023 (HIV-1)
[13] = biological target: HIV-1 Env of isolate MGRM-Chronic-B-024 (HIV-1)
[14] = biological target: HIV-1 Env of isolate MGRM-D-011 (HIV-1)
[15] = biological target: HIV-1 Env of isolate MGRM-D-012 (HIV-1)
[16] = biological target: HIV-1 Env of isolate MGRM-D-013 (HIV-1)
[17] = biological target: HIV-1 Env of isolate MGRM-D-014 (HIV-1)
[18] = biological target: HIV-1 Env of isolate MGRM-D-016 (HIV-1)
[19] = biological target: HIV-1 Env of isolate MGRM-D-018 (HIV-1)
[20] = biological target: HIV-1 Env of isolate MGRM-D-019 (HIV-1)
[21] = biological target: HIV-1 Env of isolate MGRM-D-020 (HIV-1)
[22] = biological target: HIV-1 Env of isolate MGRM-D-021 (HIV-1)
[23] = biological target: HIV-1 Env of isolate MGRM-D-022 (HIV-1)
[24] = biological target: HIV-1 Env of isolate MGRM-D-024 (HIV-1)
[25] = biological target: HIV-1 Env of isolate MGRM-D-026 (HIV-1)
[26] = biological target: HIV-1 Env of isolate MGRM-D-028 (HIV-1)
[27] = biological target: HIV-1 Env of isolate MGRM-D-029 (HIV-1)
[28] = biological target: HIV-1 Env of isolate MGRM-F1-004 (HIV-1)
[29] = biological target: HIV-1 Env of isolate MGRM-F1-006 (HIV-1)
[30] = biological target: HIV-1 Env of isolate MGRM-F1-008 (HIV-1)
[31] = biological target: HIV-1 Env of isolate MGRM-F1-010 (HIV-1)
[32] = biological target: HIV-1 Env of isolate MGRM-F1-012 (HIV-1)
[33] = biological target: HIV-1 Env of isolate MGRM-F1-013 (HIV-1)
[34] = biological target: HIV-1 Env of isolate MGRM-F1-014 (HIV-1)
[35] = biological target: HIV-1 Env of isolate MGRM-F1-015 (HIV-1)
[36] = biological target: HIV-1 Env of isolate MGRM-F1-016 (HIV-1)
[37] = biological target: HIV-1 Env of isolate MGRM-F1-017 (HIV-1)
[38] = biological target: HIV-1 Env of isolate MGRM-F1-018 (HIV-1)
[39] = biological target: HIV-1 Env of isolate MGRM-F1-020 (HIV-1)
[40] = biological target: HIV-1 Env of isolate MGRM-F1-021 (HIV-1)
[41] = biological target: HIV-1 Env of isolate MGRM-F1-022 (HIV-1)
[42] = biological target: HIV-1 Env of isolate MGRM-F1-023 (HIV-1)
[43] = biological target: HIV-1 Env of isolate NL43 (HIV-1)
[44] = biological target: HIV-1 Env of isolate PVO.4 (HIV-1)
[45] = biological target: HIV-1 Env of isolate QH0692.42 (HIV-1)
[46] = biological target: HIV-1 Env of isolate SC422661.8 (HIV-1)
[47] = biological target: HIV-1 Env of isolate SF162 (HIV-1) (UniProt P19550)
[48] = biological target: HIV-1 Env of isolate THR0.18 (HIV-1)
[49] = biological target: HIV-1 Env of isolate TRJ04551.58 (HIV-1)
[50] = biological target: HIV-1 Env of isolate TRO.11 (HIV-1)
[51] = biological target: HIV-1 Env of isolate VLGCB3 (HIV-1)

PGT-142 (antibody), sequence (VH): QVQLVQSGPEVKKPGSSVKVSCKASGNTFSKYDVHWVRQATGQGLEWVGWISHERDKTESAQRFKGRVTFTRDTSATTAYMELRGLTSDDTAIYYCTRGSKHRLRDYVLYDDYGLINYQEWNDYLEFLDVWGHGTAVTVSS
PGT-142 (antibody), sequence (VL): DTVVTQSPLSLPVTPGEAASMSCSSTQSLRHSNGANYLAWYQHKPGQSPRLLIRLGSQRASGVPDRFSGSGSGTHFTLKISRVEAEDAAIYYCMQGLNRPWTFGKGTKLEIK
PGT-143 (antibody), sequence (VH): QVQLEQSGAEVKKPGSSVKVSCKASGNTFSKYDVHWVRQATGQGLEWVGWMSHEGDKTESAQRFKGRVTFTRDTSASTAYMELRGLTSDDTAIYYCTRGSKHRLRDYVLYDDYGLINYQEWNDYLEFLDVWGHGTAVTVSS
PGT-143 (antibody), sequence (VL): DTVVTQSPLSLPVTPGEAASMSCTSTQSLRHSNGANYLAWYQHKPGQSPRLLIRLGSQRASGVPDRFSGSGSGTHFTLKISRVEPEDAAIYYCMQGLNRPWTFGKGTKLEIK

PGT-142 (antibody)
neutralization IC50 [1]: 0.001 µg/mL | neutralization IC50 [2]: 0.001 µg/mL | neutralization IC50 [3]: > 50 µg/mL | neutralization IC50 [4]: 0.001 µg/mL | neutralization IC50 [5]: 0.01 µg/mL | neutralization IC50 [6]: > 50 µg/mL | neutralization IC50 [7]: 0.994 µg/mL | neutralization IC50 [8]: > 50 µg/mL | neutralization IC50 [9]: 0.076 µg/mL | neutralization IC50 [10]: 0.323 µg/mL | neutralization IC50 [11]: > 50 µg/mL | neutralization IC50 [12]: 0.486 µg/mL | neutralization IC50 [13]: 0.005 µg/mL | IC50, pseudovirus neutralization [14]: > 50 µg/mL | IC50, pseudovirus neutralization [15]: > 50 µg/mL | IC50, pseudovirus neutralization [16]: 0.221 µg/mL | IC50, pseudovirus neutralization [17]: 0.005 µg/mL | IC50, pseudovirus neutralization [18]: > 50 µg/mL | IC50, pseudovirus neutralization [19]: > 50 µg/mL | IC50, pseudovirus neutralization [20]: 0.155 µg/mL | IC50, pseudovirus neutralization [21]: > 50 µg/mL | IC50, pseudovirus neutralization [22]: > 50 µg/mL | IC50, pseudovirus neutralization [23]: > 50 µg/mL | IC50, pseudovirus neutralization [24]: > 50 µg/mL | IC50, pseudovirus neutralization [25]: 12.5 µg/mL | IC50, pseudovirus neutralization [26]: > 50 µg/mL | IC50, pseudovirus neutralization [27]: 0.192 µg/mL | IC50, pseudovirus neutralization [28]: 0.013 µg/mL | IC50, pseudovirus neutralization [29]: 12.9 µg/mL | IC50, pseudovirus neutralization [30]: 0.124 µg/mL | IC50, pseudovirus neutralization [31]: > 50 µg/mL | IC50, pseudovirus neutralization [32]: > 50 µg/mL | IC50, pseudovirus neutralization [33]: 0.023 µg/mL | IC50, pseudovirus neutralization [34]: 0.001 µg/mL | IC50, pseudovirus neutralization [35]: > 50 µg/mL | IC50, pseudovirus neutralization [36]: > 50 µg/mL | IC50, pseudovirus neutralization [37]: 23.5 µg/mL | IC50, pseudovirus neutralization [38]: 0.404 µg/mL | IC50, pseudovirus neutralization [39]: 0.824 µg/mL | IC50, pseudovirus neutralization [40]: > 50 µg/mL | IC50, pseudovirus neutralization [41]: 0.04 µg/mL | IC50, pseudovirus neutralization [42]: 0.602 µg/mL | neutralization IC50 [43]: > 50 µg/mL | neutralization IC50 [44]: 0.066 µg/mL | neutralization IC50 [45]: > 50 µg/mL | neutralization IC50 [46]: 3.15 µg/mL | neutralization IC50 [47]: > 50 µg/mL | neutralization IC50 [48]: 0.012 µg/mL | neutralization IC50 [49]: > 50 µg/mL | neutralization IC50 [50]: 0.27 µg/mL | neutralization IC50 [51]: > 50 µg/mL

PGT-143 (antibody)
neutralization IC50 [1]: 0.002 µg/mL | neutralization IC50 [2]: 0.002 µg/mL | neutralization IC50 [3]: > 50 µg/mL | neutralization IC50 [4]: 0.001 µg/mL | neutralization IC50 [5]: 0.007 µg/mL | neutralization IC50 [6]: > 50 µg/mL | neutralization IC50 [7]: 1.56 µg/mL | neutralization IC50 [8]: > 50 µg/mL | neutralization IC50 [9]: 0.145 µg/mL | neutralization IC50 [10]: 0.377 µg/mL | neutralization IC50 [11]: > 50 µg/mL | neutralization IC50 [12]: 0.236 µg/mL | neutralization IC50 [13]: 0.01 µg/mL | IC50, pseudovirus neutralization [14]: > 50 µg/mL | IC50, pseudovirus neutralization [15]: > 50 µg/mL | IC50, pseudovirus neutralization [16]: 0.386 µg/mL | IC50, pseudovirus neutralization [17]: 0.009 µg/mL | IC50, pseudovirus neutralization [18]: > 50 µg/mL | IC50, pseudovirus neutralization [19]: > 50 µg/mL | IC50, pseudovirus neutralization [20]: 0.277 µg/mL | IC50, pseudovirus neutralization [21]: > 50 µg/mL | IC50, pseudovirus neutralization [22]: > 50 µg/mL | IC50, pseudovirus neutralization [23]: > 50 µg/mL | IC50, pseudovirus neutralization [24]: > 50 µg/mL | IC50, pseudovirus neutralization [25]: 44.6 µg/mL | IC50, pseudovirus neutralization [26]: > 50 µg/mL | IC50, pseudovirus neutralization [27]: 0.2 µg/mL | IC50, pseudovirus neutralization [28]: 0.036 µg/mL | IC50, pseudovirus neutralization [29]: 12.3 µg/mL | IC50, pseudovirus neutralization [30]: 0.189 µg/mL | IC50, pseudovirus neutralization [31]: > 50 µg/mL | IC50, pseudovirus neutralization [32]: > 50 µg/mL | IC50, pseudovirus neutralization [33]: 0.013 µg/mL | IC50, pseudovirus neutralization [34]: 0.001 µg/mL | IC50, pseudovirus neutralization [35]: > 50 µg/mL | IC50, pseudovirus neutralization [36]: > 50 µg/mL | IC50, pseudovirus neutralization [37]: 26.3 µg/mL | IC50, pseudovirus neutralization [38]: 0.701 µg/mL | IC50, pseudovirus neutralization [39]: 0.98 µg/mL | IC50, pseudovirus neutralization [40]: > 50 µg/mL | IC50, pseudovirus neutralization [41]: 0.082 µg/mL | IC50, pseudovirus neutralization [42]: 0.972 µg/mL | neutralization IC50 [43]: > 50 µg/mL | neutralization IC50 [44]: 0.162 µg/mL | neutralization IC50 [45]: > 50 µg/mL | neutralization IC50 [46]: 2.02 µg/mL | neutralization IC50 [47]: > 50 µg/mL | neutralization IC50 [48]: 0.016 µg/mL | neutralization IC50 [49]: > 50 µg/mL | neutralization IC50 [50]: 0.219 µg/mL | neutralization IC50 [51]: > 50 µg/mL
